T1: RecC protein (wild type, N-terminal 6xHis tag), P07648
T1 chain: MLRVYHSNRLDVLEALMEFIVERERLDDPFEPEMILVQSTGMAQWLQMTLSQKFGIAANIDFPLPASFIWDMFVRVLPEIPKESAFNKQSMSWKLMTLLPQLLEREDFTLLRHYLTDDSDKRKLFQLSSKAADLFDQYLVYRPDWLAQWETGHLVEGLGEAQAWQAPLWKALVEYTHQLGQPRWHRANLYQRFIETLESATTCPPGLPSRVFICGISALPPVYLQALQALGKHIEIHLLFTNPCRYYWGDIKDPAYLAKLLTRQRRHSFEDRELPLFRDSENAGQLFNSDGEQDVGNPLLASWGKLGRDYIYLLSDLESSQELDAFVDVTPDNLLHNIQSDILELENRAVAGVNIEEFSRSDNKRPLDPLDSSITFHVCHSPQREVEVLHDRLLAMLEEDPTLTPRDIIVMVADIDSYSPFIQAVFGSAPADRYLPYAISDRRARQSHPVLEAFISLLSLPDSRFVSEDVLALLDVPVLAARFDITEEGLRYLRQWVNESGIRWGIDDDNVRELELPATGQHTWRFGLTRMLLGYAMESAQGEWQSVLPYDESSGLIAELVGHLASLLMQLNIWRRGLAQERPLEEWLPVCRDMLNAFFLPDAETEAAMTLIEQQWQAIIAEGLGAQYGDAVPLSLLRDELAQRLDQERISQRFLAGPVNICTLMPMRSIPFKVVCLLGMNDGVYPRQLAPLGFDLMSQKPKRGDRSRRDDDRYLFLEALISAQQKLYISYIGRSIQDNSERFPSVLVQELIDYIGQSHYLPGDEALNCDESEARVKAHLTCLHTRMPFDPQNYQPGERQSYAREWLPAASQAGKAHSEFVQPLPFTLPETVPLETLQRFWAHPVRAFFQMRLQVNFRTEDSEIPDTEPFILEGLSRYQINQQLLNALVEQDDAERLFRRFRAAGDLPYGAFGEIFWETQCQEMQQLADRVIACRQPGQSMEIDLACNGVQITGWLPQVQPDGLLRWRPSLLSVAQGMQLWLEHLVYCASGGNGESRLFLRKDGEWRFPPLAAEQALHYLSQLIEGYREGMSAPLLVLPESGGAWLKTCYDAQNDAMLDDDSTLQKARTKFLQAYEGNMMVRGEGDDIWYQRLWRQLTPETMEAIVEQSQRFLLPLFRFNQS


Tests used:
[1] = tested on: CbAgo (Clostridium butyricum); test: cleavage_in_vitro; conditions: 5'-phosphate
[2] = target: T1, RecC protein (wild type, N-terminal …)

Molecule	activity ([1]; 4 min, 37 C)	activity ([1]; 16 min, 37 C)	further results
TCGCAAGGTTAGTGCTGAGGT / GTTTGCTGATGAACTAAGTCAACCTCAGCATCAACCTTGCGAGTCATTTCTTT [T1 ; ss-phiX174]	74 % cleaved		
AGTGCTGAGGTTGACTTAGTT / GTTTGCTGATGAACTAAGTCAACCTCAGCATCAACCTTGCGAGTCATTTCTTT [T2-A1 ; ss-phiX174]		35 % cleaved	
CGCAAGGTTAGTGCTGAGGTT / GTTTGCTGATGAACTAAGTCAACCTCAGCATCAACCTTGCGAGTCATTTCTTT [T1-C1 ; ss-phiX174]		50 % cleaved	
GTGCTGAGGTTGACTTAGTTC / GTTTGCTGATGAACTAAGTCAACCTCAGCATCAACCTTGCGAGTCATTTCTTT [T2-G1 ; ss-phiX174]	80 % cleaved		
TGACTGCGATCCTGCAT / GCTAGATAGATTGACAGATTACTCAAGCAGGCATGCAGGATCGCAGTCAGATTTATGTGTCATATAGTACGTGATTCAAG / CTTGAATCACGTACTATATGACACATAAATCTGACTGCGATCCTGCATGCCTGCTTGAGTAATCTGTCAATCTATCTAGC [B12 ; 80 bp blunt substrate]			activity ([1]; with RecdeltaB-C helicase, 15 min, 2-fold more with added CbuRecQ): 25 % cleaved
RecB^exo- (full-length nuclease deficient RecB DNA helicase variant, E1020A/D1080A/K1082A, N-terminal 6xHis tag) (protein) MSDVAETLDPLRLPLQGERLIEASAGTGKTFTIAALYLRLLLGLGGSAAFPRPLTVEELLVVTFTEAATAELRGRIRSNIHELRIACLRETTDNPLYERLLEEIDDKAQAAQWLLLAERQMDEAAVFTIHGFCQRMLNLNAFESGMLFEQQLIEDESLLRYQACADFWRRHCYPLPREIAQVVFETWKGPQALLRDINRYLQGEAPVIKAPPPDDETLASRHAQIVARIDTVKQQWRDAVGELDALIESSGIDRRKFNRSNQAKWIDKISAWAEEETNSYQLPESLEKFSQRFLEDRTKAGGETPRHPLFEAIDQLLAEPLSIRDLVITRALAEIRETVAREKRRRGELGFDDMLSRLDSALRSESGEVLAAAIRTRFPVAMIDEFQDTDPQQYRIFRRIWHHQPETALLLIGDPKQAIYAFRGADIFTYMKARSEVHAHYTLDTNWRSAPGMVNSVNKLFSQTDDAFMFREIPFIPVKSAGKNQALRFVFKGETQPAMKMWLMEGESCGVGDYQSTMAQVCAAQIRDWLQAGQRGEALLMNGDDARPVRASDISVLVRSRQEAAQVRDALTLLEIPSVYLSNRDSVFETLEAQEMLWLLQAVMTPERENTLRSALATSMMGLNALDIETLNNDEHAWDVVVEEFDGYRQIWRKRGVMPMLRALMSARNIAENLLATAGGERRLTDILHISELLQEAGTQLESEHALVRWLSQHILEPDSNASSQQMRLESDKHLVQIVTIHKSKGLEYPLVWLPFITNFRVQEQAFYHDRHSFEAVLDLNAAPESVDLAEAERLAEDLRLLYVALTRSVWHCSLGVAPLVRRRGDKKGDTDVHQSALGRLLQKGEPQDAAGLRTCIEALCDDDIAWQTAQTGDNQPWQVNDVSTAELNAKTLQRLPGDNWRVTSYSGLQQRGHGIAQDLMPRLDVDAAGVASVVEEPTLTPHQFPRGASPGTFLHSLFEDLDFTQPVDPNWVREKLELGGFESQWEPVLTEWITAVLQAPLNETGVSLSQLSARNKQVAMEFYLPISEPLIASQLDTLIRQFDPLSAGCPPLEFMQVRGMLKGFIDLVFRHEGRYYLLAYASNWLGEDSSAYTQQAMAAAMQAHRYDLQYQLYTLALHRYLRHRIADYDYEHHFGGVIYLFLRGVDKEHPQQGIYTTRPNAGLIALMDEMFAGMTLEEA			DNA unwinding activity (DpnI-based helicase assay, capillary electrophoresis) [2]: RecB^exo- alone is a weak DNA helicase, but its unwinding activity significantly increases after interaction with RecC protein
